The values below come from publication PMC6553639 (Science signaling, 2018).

No end group written: not given here. *: point of attachment. FITC = O=C1OC2(c3ccc(O)cc3Oc3cc(O)ccc32)c2ccc(NC(=S)*)cc21

The target of experiment [1] is T1, TRIB1(84–372) (human, UniProt Q96RU8 84-372).
T1 sequence (looked up): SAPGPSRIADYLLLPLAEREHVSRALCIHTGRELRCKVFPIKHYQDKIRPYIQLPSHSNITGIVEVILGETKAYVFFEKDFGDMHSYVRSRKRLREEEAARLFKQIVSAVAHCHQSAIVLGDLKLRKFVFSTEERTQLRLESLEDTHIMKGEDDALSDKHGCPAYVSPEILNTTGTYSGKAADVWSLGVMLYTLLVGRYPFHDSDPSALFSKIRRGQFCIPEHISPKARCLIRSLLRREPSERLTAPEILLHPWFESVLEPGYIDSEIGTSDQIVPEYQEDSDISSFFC
The experiment can be described thus: ITC. (ITC needs no label: the signal is the heat of the interaction.)

The target of experiment [2] is T1, TRIB1(84–372). The experiment can be described thus: differential scanning fluorimetry. For orientation: DSF heats the sample and reads unfolding from a dye or from intrinsic fluorescence.
Experiment [3] addresses COP1 WD40 domain (376–731) (UniProt Q8NHY2 376-731). Kind of experiment: fluorescence polarisation. Background: Polarisation of emitted light reports the rotation of a fluorescent probe.
Experiment [4] deals with T2, GST-TRIB1(84–372) wild type (human, UniProt Q96RU8 84-372).
T2 sequence (looked up): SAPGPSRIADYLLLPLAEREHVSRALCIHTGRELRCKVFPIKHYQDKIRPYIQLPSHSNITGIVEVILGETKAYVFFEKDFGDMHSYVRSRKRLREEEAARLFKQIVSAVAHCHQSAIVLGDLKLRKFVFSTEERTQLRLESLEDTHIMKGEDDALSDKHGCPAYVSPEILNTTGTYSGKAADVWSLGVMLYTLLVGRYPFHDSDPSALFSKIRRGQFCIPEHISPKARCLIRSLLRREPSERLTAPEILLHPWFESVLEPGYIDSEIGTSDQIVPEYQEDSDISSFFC
The experiment can be described thus: pull-down.

The target in the next experiment is T3, GST-TRIB1(84–372) S240W (human, UniProt Q96RU8 84-372, S240W).
T3 sequence (looked up): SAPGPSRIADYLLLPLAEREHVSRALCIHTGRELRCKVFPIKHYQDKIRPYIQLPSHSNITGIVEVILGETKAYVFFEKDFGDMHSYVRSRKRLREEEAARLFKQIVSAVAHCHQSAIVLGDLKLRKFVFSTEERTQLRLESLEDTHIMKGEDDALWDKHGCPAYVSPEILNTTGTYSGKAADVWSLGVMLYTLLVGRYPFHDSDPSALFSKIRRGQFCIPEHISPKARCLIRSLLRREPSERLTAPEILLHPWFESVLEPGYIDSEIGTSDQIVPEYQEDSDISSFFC
The experiment can be described thus: pull-down.

Chain of COP1 WD40 domain (376–731) (Q8NHY2 376-731): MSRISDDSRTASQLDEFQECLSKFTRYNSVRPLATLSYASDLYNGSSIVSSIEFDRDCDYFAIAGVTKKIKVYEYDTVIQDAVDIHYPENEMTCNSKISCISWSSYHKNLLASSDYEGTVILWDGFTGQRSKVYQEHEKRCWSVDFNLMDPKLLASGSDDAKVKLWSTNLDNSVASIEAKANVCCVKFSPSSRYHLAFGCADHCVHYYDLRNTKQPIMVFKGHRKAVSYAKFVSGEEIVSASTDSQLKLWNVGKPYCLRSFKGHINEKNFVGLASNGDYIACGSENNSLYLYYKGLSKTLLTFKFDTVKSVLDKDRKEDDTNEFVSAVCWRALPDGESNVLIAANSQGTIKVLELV

GDMCEHEASIDLSAYIESGEEQL (peptide, UniProt Q15744 31-53, looked up) [C/EBPε(31–53) fused to MBP]: the binding result with TRIB1(84–372) [1] is given as “binds”. For the molecule GGICEHETSIDISAYIDPAAFND (peptide, UniProt P49715 53-75, looked up) [C/EBPα degron peptide (53 to 75)], in the experiment with TRIB1(84–372) [2], the binding result is “binds”. Take {FITC}-SEIGTSDQIVPEYQEDSDI (peptide, UniProt Q96RU8 349-367, looked up) [FITC-TRIB1(349–367)]: in experiment [3], the binding result is listed as “binds”. On to PAMYDDESAIDFSAYIDSMAAVP (peptide, UniProt P49716 50-72, looked up) [C/EBPδ(50–72) fused to MBP], for which the binding result in the experiment with TRIB1(84–372) [1] is “binds”. As for SEIGTSDQIVPEYQEDSDI (peptide, UniProt Q96RU8 349-367, looked up) [TRIB1 peptide (residues 349 to 367)], the binding result in experiment [3] is “binds”. As to GGICEHETSIDISAYIDPAAFND (peptide, UniProt P49715 53-75, looked up) [His6MBP-C/EBPα(53–75)], the binding result (with TRIB1(84–372) [1]; in experiment [4]; in the experiment with GST-TRIB1(84–372) S240W) was “binds” throughout.
